Assay results taken from US20120107330A1 (published 2012).
Ends that are not written are not given here.

Assays:
[1] = target: T1, human TNFR1 on MRC-5 cells (human, UniProt P19438 30-455); experiment: cell-based or functional assay
T1 sequence (looked up): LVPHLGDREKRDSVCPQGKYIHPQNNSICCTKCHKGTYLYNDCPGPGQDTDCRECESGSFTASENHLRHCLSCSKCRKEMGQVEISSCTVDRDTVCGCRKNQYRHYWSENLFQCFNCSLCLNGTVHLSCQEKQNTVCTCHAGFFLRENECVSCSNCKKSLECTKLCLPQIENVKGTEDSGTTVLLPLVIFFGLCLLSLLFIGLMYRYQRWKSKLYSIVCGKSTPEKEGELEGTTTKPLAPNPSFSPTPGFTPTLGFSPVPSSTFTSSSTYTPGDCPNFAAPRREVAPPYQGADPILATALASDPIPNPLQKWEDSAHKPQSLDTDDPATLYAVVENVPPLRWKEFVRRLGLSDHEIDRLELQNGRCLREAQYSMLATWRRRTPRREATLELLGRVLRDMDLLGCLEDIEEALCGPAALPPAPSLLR

[2] = target: T2, mouse serum albumin (MSA, Sigma-Aldrich) (mouse, UniProt P07724 25-608); experiment: BIAcore, MSA; DMS0169 (DOM7h-11-12 AlbudAb)
T2 construct: also called mouse albumin

[3] = target: T2, mouse serum albumin (MSA, Sigma-Aldrich); experiment: BIAcore, MSA; DMS0168 (DOM7m-16 AlbudAb)
[4] = target: T3, mouse TNFR1 (recombinant, R&D Systems cat no. 425-R1-050/CF, biotinylated) (mouse, UniProt P25118 22-212, biotinylated with EZ-Link NHS-LC-LC-biotin); experiment: BIAcore, mouse TNFR1 on SA chip
T3 construct: also called murine TNFR1; biotinylated mouse TNFR1
T3 sequence (looked up): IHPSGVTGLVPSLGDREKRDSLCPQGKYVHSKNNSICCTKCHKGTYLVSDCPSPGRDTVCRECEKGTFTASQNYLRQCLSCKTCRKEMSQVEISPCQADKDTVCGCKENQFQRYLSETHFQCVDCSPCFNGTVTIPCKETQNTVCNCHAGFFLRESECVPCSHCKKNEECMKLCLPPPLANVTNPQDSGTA
From the text: (§1) A significant advantage for an anti-TNFR1 dAb would be cross-reactivity between different species. Given the limited conservation of the sequence of the extracellular domain of TNFR1 between mouse, dog, Cynomologus monkey and human (FIG. 6), it would be exceptional for any antibody or single variable domain to recognize TNFR1 of these different species at similar affinities. […] For each of these experiments the TNFR1 was biotinylated using EZ-Link NHS-LC-LC-biotin (Pierce cat no. 21343), according to the manufacturer's instructions, followed by binding of the biotinylated TNFR1 to a Streptavidin-coated BIAcore chip. […] Examples for binding to the different species are shown in FIGS. 7 and 8, with a summary of the results in Table 2.

[5] = target: T4, peptide A3 (negative control fragment of human TNFR1) (human, cysteine pairing not given here; also: biotinylated, position not given here); experiment: BIAcore, biotinylated peptide A3 on SA chip
T4 construct: also called control peptide
T4 peptide: SGSGNDCPGPGQDTDCREC

[6] = target: T5, peptide E5 (overlapping domain-3 peptide of human TNFR1) (human, also: biotinylated, position not given here); experiment: BIAcore, biotinylated peptide E5 on SA chip, dAb at 2.5 µM
T5 construct: also called peptide 3
T5 peptide: SGSGNQYRHYWSENLFQCF

[7] = target: T6, human TNFR1 (recombinant, R&D Systems cat no. 636-R1/CF, biotinylated) (human, UniProt P19438 30-211, limits assumed, biotinylated with EZ-Link NHS-LC-LC-biotin); experiment: BIAcore, human TNFR1 on SA chip
T6 construct: it is not tied to the BIAcore reagent; also called p55; hTNFR1
T6 sequence (looked up): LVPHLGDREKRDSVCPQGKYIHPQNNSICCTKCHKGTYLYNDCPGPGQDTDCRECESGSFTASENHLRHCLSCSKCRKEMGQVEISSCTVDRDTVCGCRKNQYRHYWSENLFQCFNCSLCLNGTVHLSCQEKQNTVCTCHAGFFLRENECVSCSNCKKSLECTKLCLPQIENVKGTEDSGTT
From the text: as §1

[8] = target: dog TNFR1 (recombinant, R&D Systems cat no. 4017-TR-025/CF, biotinylated) (dog); experiment: BIAcore, dog TNFR1 on SA chip
[9] = target: T6, human TNFR1 (recombinant, R&D Systems …); experiment: BIAcore, human TNFR1
[10] = target: T7, peptide D2 (domain-1 peptide of human TNFR1) (human, cysteine pairing not given here; also: biotinylated, position not given here); experiment: BIAcore, biotinylated peptide D2 on SA chip, dAb at 2.5 µM
T7 construct: also called peptide 1
T7 peptide: SGSGNSICCTKCHKGTYLY

[11] = target: T8, peptide D5 (domain-3 peptide of human TNFR1) (human, also: biotinylated, position not given here); experiment: BIAcore, biotinylated peptide D5 on SA chip, dAb at 2.5 µM
T8 construct: also called peptide 2
T8 peptide: SGSGCRKNQYRHYWSENLF

[12] = target: T1, human TNFR1 on MRC-5 cells; experiment: cell-based or functional assay; remark: listed apart in the source
[13] = target: T2, mouse serum albumin (MSA, Sigma-Aldrich); experiment: BIAcore, MSA on CM5 chip
Experimental: (§2) FIG. 22. BIAcore analysis for binding of DOM0100-AlbudAb in-line fusions to mouse serum albumin (MSA). MSA (Sigma-Aldrich) was coated on a BIAcore CM5 chip using EDC/NHS chemistry according to manufacturer's instructions. Subsequently, the DMS constructs, each consisting N-terminally to C-terminally of an anti-TNFR1 dAb-Linker-AlbudAb and identified in Table 6, were injected at 1 μM over the MSA surface and binding was monitored. […] The corresponding BIAcore trace for each DMS clone is indicated with an arrow.
After expression and purification, all constructs were tested on the BIAcore for binding to both mouse and human serum albumin. The off-rates were determined and used to discriminate between the AlbudAbs for their suitability in prolonging the half-life of the fusion molecule. Whereas the linker had little influence on the affinity of the AlbudAb for albumin, a significant difference existed between the dAbs and their albumin affinity. The best AlbudAb for mouse binding was DOM7h-11-15 followed by DOM7m-16 and DOM7h-11-12 (FIG. 22).

rat albumin = target: T9, rat albumin (rat, UniProt P02770 25-608); experiment: BIAcore; rat albumin
T9 construct: also called rat serum albumin

[14] = target: T10, human serum albumin (HSA, Sigma-Aldrich) (human, UniProt P02768 25-609); experiment: BIAcore, HSA on CM5 chip
T10 construct: also called human albumin
Experimental: as §2, with “23.” for “22.”, “human” for “mouse”, “(HSA). HSA” for “(MSA). MSA”, “HSA” for “MSA”

[15] = target: T2, mouse serum albumin (MSA, Sigma-Aldrich); experiment: BIAcore; mouse albumin

T10 sequence (P02768 25-609 limits assumed): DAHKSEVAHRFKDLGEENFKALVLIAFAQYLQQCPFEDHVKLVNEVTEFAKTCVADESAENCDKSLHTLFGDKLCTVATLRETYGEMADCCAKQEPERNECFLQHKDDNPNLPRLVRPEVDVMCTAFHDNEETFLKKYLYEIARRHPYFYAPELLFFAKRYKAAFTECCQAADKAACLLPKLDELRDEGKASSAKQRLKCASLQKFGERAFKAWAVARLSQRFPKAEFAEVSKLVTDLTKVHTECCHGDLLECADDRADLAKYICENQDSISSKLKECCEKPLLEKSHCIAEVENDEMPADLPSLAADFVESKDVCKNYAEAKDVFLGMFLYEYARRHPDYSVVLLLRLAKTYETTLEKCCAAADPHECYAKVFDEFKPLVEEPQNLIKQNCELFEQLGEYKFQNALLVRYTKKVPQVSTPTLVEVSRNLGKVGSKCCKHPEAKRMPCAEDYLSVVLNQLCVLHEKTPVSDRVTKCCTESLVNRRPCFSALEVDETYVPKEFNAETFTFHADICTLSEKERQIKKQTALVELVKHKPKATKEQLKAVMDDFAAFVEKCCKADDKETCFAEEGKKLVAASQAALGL
T9 sequence (P02770 25-608 limits assumed): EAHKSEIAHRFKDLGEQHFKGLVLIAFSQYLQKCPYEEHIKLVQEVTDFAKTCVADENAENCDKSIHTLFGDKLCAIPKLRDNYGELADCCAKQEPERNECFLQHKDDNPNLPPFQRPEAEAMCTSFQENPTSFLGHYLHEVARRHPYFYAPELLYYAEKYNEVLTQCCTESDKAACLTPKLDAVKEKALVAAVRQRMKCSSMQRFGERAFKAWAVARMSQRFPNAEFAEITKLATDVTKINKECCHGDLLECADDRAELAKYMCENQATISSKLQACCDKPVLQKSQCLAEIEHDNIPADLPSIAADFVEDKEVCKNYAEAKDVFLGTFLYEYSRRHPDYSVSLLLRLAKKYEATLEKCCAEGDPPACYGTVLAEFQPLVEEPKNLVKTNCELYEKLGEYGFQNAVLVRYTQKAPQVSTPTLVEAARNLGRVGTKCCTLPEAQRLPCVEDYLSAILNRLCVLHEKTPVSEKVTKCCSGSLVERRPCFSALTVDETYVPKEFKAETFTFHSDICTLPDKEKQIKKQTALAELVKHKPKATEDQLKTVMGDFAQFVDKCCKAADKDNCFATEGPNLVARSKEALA

B1: DMS0169 (bispecific antibody)
chain: EVQLLESGGGLVQPGGSLRLSCAASGFTFVKYSMGWVRQAPGKGLEWVSQISNTADRTYYAHSVKGRFTISRDNSKNTLYLQMNSLRAEDTAVYYCAIYTGRWVPFEYWGQGTLVTVSSASTSGPSDIQMTQSPSSLSASVGDRVTITCRASRPIGTMLSWYQQKPGKAPKLLILFGSRLQSGVPSRFSGSGSGTDFTLTISSLQPEDFATYYCAQAGTHPTTFGQGTKVEIKRAAAEQKLISEEDLN
notes: anti-TNFR1 dAb / AlbudAb in-line fusion
For B1, the “ND50 (MRC5)” value [1] was 2.7 nM and the Kd [2] was about 200 nM.

B2: DMS0168 (bispecific antibody)
chain: EVQLLESGGGLVQPGGSLRLSCAASGFTFVKYSMGWVRQAPGKGLEWVSQISNTADRTYYAHSVKGRFTISRDNSKNTLYLQMNSLRAEDTAVYYCAIYTGRWVPFEYWGQGTLVTVSSASTSGPSDIQMTQSPSSLSASVGDRVTITCRASQSIIKHLKWYQQKPGKAPKLLIYGASRLQSGVPSRFSGSGSGTDFTLTISSLQPEDFATYYCQQGARWPQTFGQGTKVEIKRAAAEQKLISEEDLN
notes: as for B1
B2 was tested, and the “ND50 (MRC5)” value [1] was 16 nM and the Kd [3] was about 200 nM.

B3: DOM1h-574-16 (other)
VH: EVQLLESGGGLVQPGGSLRLSCAASGFTFVKYSMGWVRQAPGKGPEWVSQISNTGDRTYYADSVKGRFTISRDNSKNTLYLQMNSLRAEDTAVYYCAIYTGRWEPFDYWGQGTLVTVSS
notes: VH dAb; also called DOM1h-57-16 [sic]; the DOM0100 dAb
For B3, the Kd [4] was 20 nM, the binding result [5] was “no binding (tested: 2.5 µM)” and the binding result [6] was “binds”. It also gave a Kd [7] of 1 nM, a Kd [8] of 20 nM and a Kd [9] of 1 nM. For the same binder, the binding result [10] was “binds”, the binding result [11] was “binds” and the “MRC-5 ND50 (TNFα-mediated IL-8 release)” value [12] was 8 nM.

B4: DMS0182 (bispecific antibody)
chain: EVQLLESGGGLVQPGGSLRLSCAASGFTFVKYSMGWVRQAPGKGPEWVSQISNTGDRTYYADSVKGRFTISRDNSKNTLYLQMNSLRAEDTAVYYCAIYTGRWEPFDYWGQGTLVTVSSASTDIQMTQSPSSLSASVGDRVTITCRASRPIGTTLSWYQQKPGKAPKLLIWFGSRLQSGVPSRFSGSGSGTDFTLTISSLQPEDFATYYCAQAGTHPTTFGQGTKVEIKRAAAEQKLISEEDLN
notes: in-line fusion of an anti-TNFR1 dAb and an anti-serum albumin dAb (AlbudAb)
For B4, the koff [13] was 0.75 s⁻¹, the Kd (rat albumin) was over 1000 nM and the koff [14] was 0.17 s⁻¹. The “ND50 (MRC5)” value [1] was 6 nM and the Kd [15] was over 1000 nM.
